# Columns and labels:
# [1] = system: AncGR1 DBD (reconstructed ancestral); assay: fluorescence polarization; conditions: FP: 20 mM Tris-HCl pH 7.4, 150 mM NaCl, 5% glycerol, 10 nM FAM-DNA, 1 nM-50 uM DBD, temperature not stated
# [2] = system: AncSR2 DBD (reconstructed ancestral); assay: fluorescence polarization; conditions: FP: 20 mM Tris-HCl pH 7.4, 150 mM NaCl, 5% glycerol, 10 nM FAM-DNA, 1 nM-50 uM DBD, temperature not stated
# [3] = system: AncCR DBD (reconstructed ancestral); assay: fluorescence polarization; conditions: FP: 20 mM Tris-HCl pH 7.4, 150 mM NaCl, 5% glycerol, 10 nM FAM-DNA, 1 nM-50 uM DBD, temperature not stated
# [4] = target: T1, GR DBD (human, UniProt P04150 418-493); assay: X-ray crystallography (2.0 A); DBD dimer; FP: 20 mM Tris-HCl pH 7.4, 150 mM NaCl, 5% glycerol; 10 nM FAM-DNA, 1 nM-50 uM DBD; temperature not stated; conditions: protein: recombinant; tags: 6xHis (pMCSG7 vector); chain copies: 2
# T1 sequence (P04150 418-493): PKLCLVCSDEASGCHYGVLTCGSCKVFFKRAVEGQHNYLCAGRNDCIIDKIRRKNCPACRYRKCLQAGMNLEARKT
# [5] = target: T1, GR DBD; assay: fluorescence polarization; FP: 20 mM Tris-HCl pH 7.4, 150 mM NaCl, 5% glycerol; 10 nM FAM-DNA, 1 nM-50 uM DBD; temperature not stated; conditions: protein: recombinant, tags: 6xHis (pMCSG7 vector), chain copies: 2, label: 5' FAM on strand 1
# [6] = target: the molecule itself; assay: crystal structure; GR DBD with 5mC-GBS or pre-GBS DNA duplex, 2:1 protein:DNA molar ratio; hanging drop vapor diffusion, 50 mM sodium cacodylate pH 6.5, 80 mM calcium chloride, 1% glycerol, 7% or 8.5% PEG 400; dimer of DBD on DNA in the asymmetric unit
# [7] = target: T1, GR DBD; assay: X-ray crystallography (2.5 A); DBD dimer; FP: 20 mM Tris-HCl pH 7.4, 150 mM NaCl, 5% glycerol; 10 nM FAM-DNA, 1 nM-50 uM DBD; temperature not stated; conditions: protein: recombinant; tags: 6xHis (pMCSG7 vector); chain copies: 2
# [8] = 5mC at CpG, methyl at mC10 of AGAACGGAGCGTTCT (C12 of strand) seen in structure, other positions in Figure 3A
molecule,measurement,setting,value
CCAGAACGGAGCGTTCTGA (double strand) [5mC-GBS],Kd,[1]; [8],78 nM
same,Kd,[2]; [8],443 nM
same,Kd,[3]; [8],318 nM
CCAGAACGGAGCGTTCTGA / TCAGAACGCTCCGTTCTG [pre-GBS],Kd,[1],139 nM
same,Kd,[2],811 nM
same,Kd,[3],575 nM
"5mC-GBS crystal DNA (dsDNA, 5mC at CpG (mC10)) DNA 1: CCAGAACGGAGCGTTCTG DNA 2: TCAGAACGCTCCGTTCTG",binding result,[4],binds
GBS (dsDNA) DNA 1: TGAGAACAGAGTGTTCTTT DNA 2: AAAGAACACTCTGTTCTCA,Kd,[5]; blunt,73 nM
"human glucocorticoid receptor DNA-binding domain (domain or fragment, Cloned into the pMCSG7 vector; In the crystals two DBD copies sit on one DNA duplex (5mC-GBS or pre-GBS); also called GR DBD; GR; source: E. coli BL21 (DE3) pLysS, purified (His-Trap, gel filtration)) PPKLCLVCSDEASGCHYGVLTCGSCKVFFKRAVEGQHNYLCAGRNDCIIDKIRRKNCPACRYRKCLQAGMNLEAR",stoichiometry N,[6],2
pre-GBS crystal DNA (dsDNA) DNA 1: CCAGAACGGAGCGTTCTG DNA 2: TCAGAACGCTCCGTTCTG,binding result,[7],binds
pre-GBS (dsDNA) DNA 1: CCAGAACGGAGCGTTCTGA DNA 2: TCAGAACGCTCCGTTCTG,Kd,"[5]; as printed the second strand lacks its 3' terminal G (5' overhang 1 nt on strand 1), possibly a misprint",206 nM
"5mC-GBS (dsDNA, 5mC at CpG; methyl at mC10 of AGAACGGAGCGTTCT (C12 of strand) seen in structure, other positions in Figure 3A) DNA 1: CCAGAACGGAGCGTTCTGA DNA 2: TCAGAACGCTCCGTTCTGG",Kd,[5]; blunt,131 nM
